The results in this text go back to patent CN115806612A (SHENZHEN KANGTI BIOMEDICAL TECH CO LTD, dated 2023).

The test concerns the target APP蛋白 (amyloid precursor protein, APP). The experiment in a line: SPR. (In SPR one partner is held on a chip, and binding of the other changes the refractive index at the surface.)

Chain of APP蛋白 (amyloid precursor protein, APP) (chain, as listed by the source): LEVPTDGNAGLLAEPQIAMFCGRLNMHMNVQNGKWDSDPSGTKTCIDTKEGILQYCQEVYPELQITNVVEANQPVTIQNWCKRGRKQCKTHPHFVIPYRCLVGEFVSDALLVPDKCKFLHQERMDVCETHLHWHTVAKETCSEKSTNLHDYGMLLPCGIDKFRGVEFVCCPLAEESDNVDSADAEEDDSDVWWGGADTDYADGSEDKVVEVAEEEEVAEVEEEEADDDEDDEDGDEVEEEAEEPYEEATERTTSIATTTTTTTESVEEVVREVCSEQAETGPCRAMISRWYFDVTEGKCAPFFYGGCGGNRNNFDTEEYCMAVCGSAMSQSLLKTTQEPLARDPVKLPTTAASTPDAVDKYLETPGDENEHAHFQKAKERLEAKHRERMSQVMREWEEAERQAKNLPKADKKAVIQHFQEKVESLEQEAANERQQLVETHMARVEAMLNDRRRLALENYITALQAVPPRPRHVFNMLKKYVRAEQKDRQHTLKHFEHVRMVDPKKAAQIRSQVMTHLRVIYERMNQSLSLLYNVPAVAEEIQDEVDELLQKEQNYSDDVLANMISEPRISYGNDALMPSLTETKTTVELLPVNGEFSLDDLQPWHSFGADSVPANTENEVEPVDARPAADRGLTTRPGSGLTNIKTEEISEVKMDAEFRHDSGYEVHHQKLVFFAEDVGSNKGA

B1: 纳米抗体P2-10C (anti-APP nanobody P2-10C) (VHH)
VHH: DVQLQESGGGLVQPGGSLRLSCAASGIIFSGYYMSWVRQAPGKGPEWVSSINPSGSSTRYADSVKGRFTISRDNAKNTVYLQMYSLKPEDTALYYCSRSRDGLGDVRGQGTQVTVSS
notes: Monovalent alpaca VHH expressed from pET22b in E. coli BL21 and purified on Ni resin and by size exclusion; also called 抗APP的纳米抗体; 抗APP单域重链抗体
By koff is commonly meant the first-order rate constant of dissociation. As a reminder, the kon is the rate constant with which the complex forms. Low readings indicate slow association, high ones fast association. Regarding B1, the Kd came out at 70 nM, the koff is 0.00921 s⁻¹ and the kon turned out to be 130000 M⁻¹ s⁻¹.
